Here are results for 10 molecules from paper PMC7278358, “Kinetic parameters of human aspartate/asparagine–β-hydroxylase suggest that it has a possible function in oxygen sensing” (The Journal of Biological Chemistry, 2020).

Data set [1] has as its target T1, His6–AspH_(315–758) (human) (UniProt Q12797).
T1 sequence: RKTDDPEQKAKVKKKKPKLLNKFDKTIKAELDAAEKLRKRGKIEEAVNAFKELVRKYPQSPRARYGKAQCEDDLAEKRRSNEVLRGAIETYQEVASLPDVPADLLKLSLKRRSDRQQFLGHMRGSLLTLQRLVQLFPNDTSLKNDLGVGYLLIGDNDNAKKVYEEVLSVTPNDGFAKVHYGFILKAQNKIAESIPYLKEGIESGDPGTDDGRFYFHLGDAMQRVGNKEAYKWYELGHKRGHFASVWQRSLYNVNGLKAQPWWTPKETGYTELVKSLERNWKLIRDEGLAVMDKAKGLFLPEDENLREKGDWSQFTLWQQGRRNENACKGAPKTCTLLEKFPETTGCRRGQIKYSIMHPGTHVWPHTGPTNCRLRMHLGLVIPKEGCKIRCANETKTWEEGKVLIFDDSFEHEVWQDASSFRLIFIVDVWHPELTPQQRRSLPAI

Data set [2] has as its target T2, human His6–AspH315–758 (Homo sapiens, UniProt Q12797).
T2 construct: a pET-28a(+) vector encoding for N-terminal His6-tagged AspH315–758 (His6–AspH315–758) was transformed into Escherichia coli BL21 (DE3) cells; made in house; host or cells: Escherichia coli BL21 (DE3)
T2 sequence (Q12797 315-758): T1 sequence
Briefly: AspH steady-state kinetics from initial hydroxylation rates (SPE-MS, Michaelis–Menten). It counts as biochemical. The protocol: (§1) The reactions were monitored with a rate of 1 sample/25 s using the same SPE-MS configuration as described above. The data were analyzed as described above, and the slopes of the initial reaction rates (Fig. S6) were fitted to a Michaelis-Menten plot using nonlinear regression (GraphPad Prism 5). […] The reactions were monitored by SPE-MS with a rate of 1 sample/25 s using identical configurations as before. The data were analyzed as described, and the slopes of the initial reaction rates (Fig. […] The Morrison equation is as follows, where I is the inhibitor concentration, Ki is the dissociation constant of the inhibitor, ET is the total concentration of active enzyme, and vi/v0 is the fractional enzyme activity ([94]).

Data set [3] concerns the target T2, human His6–AspH315–758. Briefly: AspH activity assay: SPE-MS time course of peptide hydroxylation. It counts as biochemical. The following applies: 0.1 μM His6–AspH315–758, 2.0 μM peptide, 100 μM LAA, 10 μM FAS, 10 μM 2OG, 50 mM HEPES pH 7.5, 20 °C. On the procedure:
The substrate mixture (1.0 ml) containing 2.4 μM peptide, 120 μM LAA, 12 μM FAS, and 12 μM 2OG in 50 mM HEPES buffer (pH 7.5) was added into a well of a 2-ml volume 96-well assay plate (Greiner) at 20 °C under an ambient atmosphere. A blank sample was analyzed using a RapidFire RF 360 high-throughput sampling robot (Agilent) attached to an Agilent 6530 accurate mass quadrupole TOF mass spectrometer operated in the positive ionization mode. The enzyme mixture (0.2 ml), containing 0.6 μM His6–AspH315–758 in 50 mM HEPES buffer (pH 7.5), was then added to the well and thoroughly mixed. The RapidFire sampling robot was programmed to analyze 1 sample/min. The following SPE-MS conditions were used: assay samples were aspirated under vacuum for 0.4 s and loaded onto a C4 SPE cartridge. After loading, the C4 SPE cartridge was washed with 0.1% (v/v) aqueous formic acid to remove nonvolatile buffer salts (5 s, 1.5 ml/min). The peptide was then eluted from the SPE cartridge with 0.1% (v/v) aqueous formic acid in 85/15 (v/v) acetonitrile/water into the mass spectrometer (5 s, 1.25 ml/min). The SPE cartridge was re-equilibrated with 0.1% (v/v) aqueous formic acid (1 s, 1.25 ml/min). The mass spectrometer parameters were capillary voltage (3500 V), fragmentor voltage (150 V), gas temperature (350 °C), gas flow (12 liters/min). The m/z + 2 charge states of the substrate peptide and the product (hydroxylated) peptide were used to extract ion chromatogram data; peak areas were integrated using RapidFire Integrator software (Agilent). The data were exported into Microsoft Excel and used to calculate the percentage of conversion of the hydroxylation reaction using the equation: % conversion = 100 × (integral product peptide)/(integral substrate peptide + integral product peptide).

In a further data set the test system is bovine AspH. Details: method as in PMID 2187868. The conditions noted are these: cited from earlier work.
Data set [4] concerns human 2OG oxygenases, including the PHDs and FIH. The conditions noted are these: read-out: 2OG Km app, most other human 2OG oxygenases; cited from earlier work.
The target of data set [5] is T1, His6–AspH_(315–758) (human). The source holds these as a separate data set.
Substrate in data set [6]: O=C1O[C@H]([C@@H](O)CO)C(O)=C1O
The data set can be described thus: AspH steady-state kinetics from initial hydroxylation rates (SPE-MS, Michaelis–Menten). It counts as biochemical, human. The following applies: other: LAA varied; 50 μM FAS, 50 μM 2OG; hFX–CP101–119 substrate; n = 3; pH 7.5; 20.0 °C. The protocol:
as §1

The mark [7] stands for this setting: 2OG varied, 50 μM FAS, hFX–CP101–119 substrate, n = 3.
Where [8] appears, read: Fe(II) varied, in the absence of LAA, 50 μM 2OG, hFX–CP101–119 substrate, n = 3.
The mark [9] stands for this setting: Fe(II) varied, in the presence of LAA (100 μM), 50 μM 2OG, hFX–CP101–119 substrate, n = 3.

Where “and” joins values, the source holds several entries; their conditions need not be identical. Equal entries are not always repeated. Where two headings read alike, the source gives them in different places. Positions of bridges follow the written chain, without caps; N, C: chain ends. Non-standard residues stand in square brackets, D forms with d. No end group written: not given here. A value given as a limit tells only on which side of the number the result lay.

In the case of “hProC–CP_(111–129) (from UniProt P04070 111-129) (peptide)”, in data set [1], the Km of AspH for the peptide substrate (steady-state kinetics of peptide hydroxylation, SPE-MS, 50 mM HEPES pH 7.5, 20 °C) is 1.71 μM.

The Km is the concentration of substrate that gives half-maximal velocity. The term kcat/Km denotes the second-order rate constant that governs catalysis at low substrate concentration. Usually kcat stands for the maximal rate divided by the concentration of active sites. On to “hFX–CP101–119: thioether-linked cyclic peptide of hFX amino acids 101–119, Cys110 thiol linked to N-terminal chloroacetyl group, C-terminal amide ({CH2CO}-[dA]KDGLGEYTCTSLEGFEGK-NH2; thioether N-10; SMILES CC(C)C[C@@H]1NC(=O)CNC(=O)[C@H](CC(=O)O)NC(=O)[C@H](CCCCN)NC(=O)[C@@H](C)NC(=O)CSC[C@@H](C(=O)N[C@H](C(=O)N[C@@H](CO)C(=O)N[C@@H](CC(C)C)C(=O)N[C@@H](CCC(=O)O)C(=O)NCC(=O)N[C@@H](Cc2ccccc2)C(=O)N[C@@H](CCC(=O)O)C(=O)NCC(=O)N[C@@H](CCCCN)C(N)=O)[C@@H](C)O)NC(=O)[C@H]([C@@H](C)O)NC(=O)[C@H](Cc2ccc(O)cc2)NC(=O)[C@H](CCC(=O)O)NC(=O)CNC1=O)”, for which the vmax with human His6–AspH315–758 [2] (peptide as varied substrate, 0.1 μM His6–AspH315–758, 100 μM LAA, 20 μM FAS, 20 μM 2OG, 50 mM HEPES pH 7.5, 20 °C, SPE-MS, mean ± S.D., n = 3) is 0.0178 ± 0.0013 µM/s. The Michaelis constant (Km) with human His6–AspH315–758 [2] (peptide as varied substrate, 0.1 μM His6–AspH315–758, 100 μM LAA, 20 μM FAS, 20 μM 2OG, 50 mM HEPES pH 7.5, 20 °C, SPE-MS, mean ± S.D., n = 3, read-out: Km) came to 1.19 ± 0.26 µM. For the same molecule, the kcat/Km with human His6–AspH315–758 [2] (peptide as varied substrate, 100 μM LAA, 20 μM FAS, 20 μM 2OG, pH 7.5, 20 °C, mean ± S.D., n = 3) amounted to 170000 ± 50000 M⁻¹ s⁻¹. Further, in the data set with human His6–AspH315–758 [2] (peptide as varied substrate, based on active enzyme 90.8 nM (2,4-PDCA titration), 100 μM LAA, 20 μM FAS, 20 μM 2OG, pH 7.5, 20 °C, mean ± S.D., n = 3), the kcat worked out at 0.20 ± 0.03 s⁻¹. For the same molecule, in the data set with human His6–AspH315–758 [2] (up to 16 μM hFX–CP101–119), the “substrate/product inhibition of AspH activity” value is on record as “neither hFX–CP101–119 nor its hydroxylated product inhibited AspH activity”. Also, the “time to complete hydroxylation” value with human His6–AspH315–758 [3] (SPE-MS) is given as 7 min. Besides, in the data set with human His6–AspH315–758 [3] (% conversion by SPE-MS), the “Hydroxylation t = 15 min” value is >95% and the “Hydroxylation t = 200 min” value is reported as >95%. For the same molecule, the “Hydroxylation t = 15 min” value in the data set with human His6–AspH315–758 [3] (% conversion by SPE-MS, listed as hFX-CP101-119) was > 95%.

Regarding “hFX–EGFD1_86–124: EGFD1 (amino acids 86–124) of human coagulation factor X (DGDQCETSPCQNQGKCKDGLGEYTCTCLEGFEGKNCELF-NH2; also: mixture of canonical and noncanonical disulfide isomers; UniProt P00742 86-124, looked up, fragment)”, the “conversion at which hydroxylation slowed (consumption of the noncanonical disulfide isomer)” value with human His6–AspH315–758 [3] (after 5 min) is ~45%.

In the case of “hFX–CP_(101–119) (from UniProt P00742 101-119) (peptide)”, the Km of AspH for the peptide substrate (steady-state kinetics of peptide hydroxylation, SPE-MS, 50 mM HEPES pH 7.5, 20 °C) in data set [1] was determined as 1.19 μM.

As to `O=C(O)CCC(=O)C(=O)O` [2OG, 2-oxoglutarate], the Km in the data set on bovine AspH (read-out: 2OG Km app) was ~5 µM; at human His6–AspH315–758 [2] (2OG varied, 50 μM FAS, monitoring hydroxylation of hFX–CP101–119, pH 7.5, 20 °C, n = 3, read-out: Km app) it was ~0.6 µM and 0.6 µM; in data set [4], 1 to 25 µM. Further, the kcat on human His6–AspH315–758 [2] (setting [7]) was found to be 0.19 ± 0.03 s⁻¹. Further, the catalytic efficiency (kcat/Km) at human His6–AspH315–758 [2] (setting [7]) was 320000 ± 70000 M⁻¹ s⁻¹. Moreover, the vmax app on human His6–AspH315–758 [2] (2OG varied, 50 μM FAS, monitoring hydroxylation of hFX–CP101–119, pH 7.5, 20 °C, n = 3) is 0.0168 ± 0.0005 µM/s.

Regarding “hFXII–CP_(110–128) (from UniProt P00748 110-128) (peptide)”, the hydroxylation of the peptide by AspH (SPE-MS), t = 15 min to 200 min in data set [5] is < 1%.

Consider “ammonium iron(II) sulfate hexahydrate [Fe(II)]”, for which the Km is 3 µM in the data set on bovine AspH (read-out: Km app for Fe(II)); 4.76 ± 0.48 µM at human His6–AspH315–758 [2] (Fe(II) (FAS) varied, in the absence of LAA, 50 μM 2OG, monitoring hydroxylation of hFX–CP101–119, pH 7.5, 20 °C, n = 3, read-out: Km app); 1.42 ± 0.16 µM on human His6–AspH315–758 [2] (Fe(II) (FAS) varied, in the presence of LAA (100 μM), 50 μM 2OG, monitoring hydroxylation of hFX–CP101–119, pH 7.5, 20 °C, n = 3, read-out: Km app). Further, the vmax app on human His6–AspH315–758 [2] (Fe(II) (FAS) varied, in the absence of LAA, 50 μM 2OG, monitoring hydroxylation of hFX–CP101–119, pH 7.5, 20 °C, n = 3) worked out at 0.0168 ± 0.0004 µM/s; at human His6–AspH315–758 [2] (Fe(II) (FAS) varied, in the presence of LAA (100 μM), 50 μM 2OG, monitoring hydroxylation of hFX–CP101–119, pH 7.5, 20 °C, n = 3), 0.0171 ± 0.0005 µM/s. For the same molecule, the kcat on human His6–AspH315–758 [2] (setting [8]) and on human His6–AspH315–758 [2] (setting [9]) was 0.19 ± 0.03 s⁻¹ in each case. Besides, the values for the kcat/Km at human His6–AspH315–758 [2] (setting [8]) and at human His6–AspH315–758 [2] (setting [9]) were 40000 ± 10000 M⁻¹ s⁻¹ and 130000 ± 30000 M⁻¹ s⁻¹, respectively.

In the case of “hC1s–CP_(147–165) (from UniProt P09871 147-165) (peptide)”, in data set [1], the Km of AspH for the peptide substrate (steady-state kinetics of peptide hydroxylation, SPE-MS, 50 mM HEPES pH 7.5, 20 °C) was found to be 36.5 μM.

Take “hC1r–CP_(165–183) (from UniProt P00736 165-183) (peptide)”: the Km of AspH for the peptide substrate (steady-state kinetics of peptide hydroxylation, SPE-MS, 50 mM HEPES pH 7.5, 20 °C) in data set [1] was 3 μM.

B1: human His6–AspH315–758 (Homo sapiens) (protein)
chain: T1 sequence
notes: a pET-28a(+) vector encoding for N-terminal His6-tagged AspH315–758 (His6–AspH315–758) was transformed into Escherichia coli BL21 (DE3) cells; made in house; host or cells: Escherichia coli BL21 (DE3)
For B1, the kcat in data set [6] stood at 0.16 ± 0.03 s⁻¹.
